Source: patent publication US10724009B2, “Cannabichromenic acid synthase from Cannabis sativa” (priority 2014, dated 2020)
Several values for one entry are separate records, joined by “and”; a condition that tells them apart may be missing. Equal entries are not always repeated.

How the values were obtained:
[1] = tested on: mouse tetrad model; details: at high concentrations (DeLong et al., 2011); cited from earlier work
[2] = target: T1, recombinant CBCAS (Cannabis sativa, UniProt Q33DQ2, H543R/W244C); test: CBCAS assay: conversion of CBGA to CBCA, products analysed by HPLC/LCMS; assay type: biochemical; details: for inhibition of recombinant CBCAS by additive: FIG. 4, effect of additive on CBCA production, high concentrations; for formation of CBCA from CBGA: recombinant enzyme expressed in Pichia pastoris, CBGA incubated 14 h
T1 construct: alpha-factor signal peptide (vector encoded) (N); made in house; host or cells: Pichia pastoris strain X33
Experimental: FIG. 4 depicts optimal conditions for CBCAS activity. […] Values are expressed as a fraction of CBCA produced (CBCA A265 nm/(CBGA A265 nm+CBCA A265 nm)*100).
Reactions using media were performed by incubating 10 μmols CBGA in 500 μL of clarified culture media for 14 h. Reactions using hydroxyl-apatite fractions were performed with 100 μL of the fraction incubated with 10 nmols of CBGA for 14 h. Completed reactions were acidified with one drop of 4 N HCl and extracted twice with 400 μL of acetonitrile. After centrifugation, the organic phases were pooled and evaporated to dryness. Products were resuspended in 20 μL of 50% methanol, of which 10 μL was analyzed by LCMS. Products were separated with a Waters Alliance HPLC using a binary solvent system (solvent A: 10% acetonitrile, 0.05% formic acid; solvent B: 99.95% acetonitrile, 0.05% formic acid) and an Ascnetis C18 5 cm×2.1 mm 2.7 μm column (Sigma). Initial conditions: 55% A at 0.25 mL/min. Ramp to 5% A from 0-8 min, hold at 5% A for 2.5 min, return to initial conditions over 2 min and equilibrate at initial conditions for 7 min. Ultraviolet spectra were obtained using photodiode array detection at 200-350 nm.

CCCCCc1cc(O)c2c(c1)OC(C)(CCC=C(C)C)C=C2 (stereo not drawn) [CBC, cannabichromene]
THC-like activity in a mouse tetrad model [1]: shows THC-like activity

C[S+](C)[O-] [DMSO, reference compound]
inhibition of recombinant CBCAS by additive [2]: inhibited by high concentrations

Triton X-100 [reference compound]
inhibition of recombinant CBCAS by additive [2]: inhibited by high concentrations

B1: recombinant CBCAS: Cannabis sativa cannabichromenic acid synthase (SEQ ID NO:2) expressed in Pichia pastoris with alpha-factor signal peptide (protein)
chain: MNCSTFSFWFVCKIIFFFLSFNIQISIANPQENFLKCFSEYIPNNPANPKFIYTQHDQLYMSVLNSTIQNLRFTSDTTPKPLVIVTPSNVSHIQASILCSKKVGLQIRTRSGGHDAEGLSYISQVPFAIVDLRNMHTVKVDIHSQTAWVEAGATLGEVYYWINEMNENFSFPGGYCPTVGVGGHFSGGGYGALMRNYGLAADNIIDAHLVNVDGKVLDRKSMGEDLFWAIRGGGGENFGIIAACKIKLVVVPSKATIFSVKKNMEIHGLVKLFNKWQNIAYKYDKDLMLTTHFRTRNITDNHGKNKTTVHGYFSSIFLGGVDSLVDLMNKSFPELGIKKTDCKELSWIDTTIFYSGVVNYNTANFKKEILLDRSAGKKTAFSIKLDYVKKLIPETAMVKILEKLYEEEVGVGMYVLYPYGGIMDEISESAIPFPHRAGIMYELWYTATWEKQEDNEKHINWVRSVYNFTTPYVSQNPRLAYLNYRDLDLGKTNPESPNNYTQARIWGEKYFGKNFNRLVKVKTKADPNNFFRNEQSIPPLPPRHH
modifications: alpha-factor signal peptide; Cannabis Sativa
temperature of maximal activity ([2]; 35, 40, 45 and 50° C. tested): 40 °C | pH optimum ([2]; FIG. 4, effect of buffer and buffer pH on CBCA production): 5.5 | temperature optimum ([2]; FIG. 4, effect of incubation temperature on CBCA production): 40 degrees | pH of maximal activity ([2]; pH 3.5 to 7 tested): 5 and 5.5 | formation of CBCA from CBGA [2]: catalyzed the formation of CBCA from CBGA | formation of CBCA from CBGA ([2]; listed as CBCAS): produces CBCA
